These results are taken from patent EP1706427B1 (Crucell Holland B.V., dated 2011).

The target in experiment [1] is T1, murine CD1a (mouse).
T1 construct: whole, on cells; no mouse CD1a entry is known to me; also called mouse thymocytes
The experiment in a line: flow cytometry on mouse thymocytes, Kolmogorov-Smirnov D-value. Background: A flow cytometer gives signals particle by particle.

For experiment [2], the target named is T2, murine CD1d (mouse, UniProt P11609 22-336).
T2 construct: whole, on cells; also called mouse thymocytes
T2 sequence (looked up): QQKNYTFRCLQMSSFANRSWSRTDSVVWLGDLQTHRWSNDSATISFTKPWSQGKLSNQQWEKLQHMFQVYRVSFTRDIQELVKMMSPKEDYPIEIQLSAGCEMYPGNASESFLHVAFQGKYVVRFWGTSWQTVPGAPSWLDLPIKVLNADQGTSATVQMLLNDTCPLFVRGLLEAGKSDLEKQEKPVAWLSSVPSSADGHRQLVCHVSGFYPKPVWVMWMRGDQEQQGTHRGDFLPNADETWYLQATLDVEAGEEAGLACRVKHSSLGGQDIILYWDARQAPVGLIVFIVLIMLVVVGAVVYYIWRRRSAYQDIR
Described as above.

Substitutions are numbered along the chain they refer to.

B1: human anti-human CD1a monoclonal antibody CR2117 (antibody, human IgG1, kappa, V domains shown)
VH: EVQLVESGGGLVHPGGSLRLSCAGSGFTFSSYAMHWVRQAPGKGLEWVSAIGTGGGTYYADSVKGRFTISRDNAKNSLYLQMNSLRAEDTAVYYCARSTPWFSFDYWGQGTLVTVSS
VL: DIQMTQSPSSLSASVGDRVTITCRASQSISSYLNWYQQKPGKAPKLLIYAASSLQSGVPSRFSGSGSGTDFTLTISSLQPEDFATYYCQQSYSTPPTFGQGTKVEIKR
notes: Human IgG1 kappa made in 293T cells; Used unlabelled and biotinylated; also called 02-117
As for B1, the D-value in experiment [1] and in experiment [2] was 0 throughout.

B2: human anti-human CD1a monoclonal antibody CR2118 (antibody, human IgG1, kappa, V domains shown)
VH: B1 VH with G52S, T99A, P100W, F102L, Y106S
VL: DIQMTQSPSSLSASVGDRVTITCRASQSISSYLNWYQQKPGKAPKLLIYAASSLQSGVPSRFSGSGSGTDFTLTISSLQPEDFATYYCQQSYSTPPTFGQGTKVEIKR
notes: Human IgG1 kappa made in 293T cells; Used unlabelled and biotinylated; also called 02-118
Take B2: the D-value in experiment [1] and in experiment [2] was 0 each time.

B3: human anti-human CD1a monoclonal antibody CR2114 (antibody, human IgG1, kappa, V domains shown)
VH: EVQLVESGGGLVQPGGSLRLSCAASGFTFSSYSMNWVRQAPGKGLEWVSYISSSSSTIYYADSVKGRFTISRDNAKNSLYLQMNSLRDEDTAVYYCAKETWWQSFDYWGQGTLVTVSS
VL: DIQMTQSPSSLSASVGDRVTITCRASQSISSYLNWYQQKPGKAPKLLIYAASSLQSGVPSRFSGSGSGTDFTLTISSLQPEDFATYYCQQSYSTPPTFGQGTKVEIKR
notes: Human IgG1 kappa made in 293T cells; Used unlabelled and biotinylated; also called 02-114
As to B3, the D-value in experiment [1] and in experiment [2] was 0 throughout.

B4: human anti-human CD1a monoclonal antibody CR2113 (antibody, human IgG1, kappa, V domains shown)
VH: QVQLQESGAGLLKPSETLSLTCAVYGGSFSGYYWSWIRQPPGKGLEWIGYIYYSGSTNYNPSLKSRVTISVDTSKNQFSLKLSSVTAADTAVYYCAKAPYMMYFDSWGQGTLVTVSS
VL: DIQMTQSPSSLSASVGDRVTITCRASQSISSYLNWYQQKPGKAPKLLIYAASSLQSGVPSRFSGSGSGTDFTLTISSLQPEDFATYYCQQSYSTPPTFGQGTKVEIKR
notes: Human IgG1 kappa made in 293T cells, purified over protein A and size exclusion; Used unlabelled and biotinylated; also called 02-113
As to B4, the D-value in experiment [1] and in experiment [2] was 0 each time.
